Test results taken from patent CN116355099A (BEIJING KENUO XINCHENG TECH CO LTD, dated 2023).

Key:
[1] = target: PD-L1 on CHO-PD-L1-CD3L cells (UniProt Q9NZQ7 19-290, limits assumed); experiment: cell-based or functional assay
[2] = target: T1, human OX40 on HT1080-hOX40 cells (human, UniProt P43489 29-277); experiment: cell-based or functional assay
T1 sequence (looked up): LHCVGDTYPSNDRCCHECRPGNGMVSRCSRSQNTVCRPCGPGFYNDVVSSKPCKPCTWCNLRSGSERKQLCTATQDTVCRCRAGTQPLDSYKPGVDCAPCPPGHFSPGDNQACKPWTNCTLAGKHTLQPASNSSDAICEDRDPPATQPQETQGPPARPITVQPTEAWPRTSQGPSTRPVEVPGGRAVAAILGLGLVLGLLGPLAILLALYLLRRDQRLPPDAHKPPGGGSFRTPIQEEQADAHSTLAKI

人OX40胞外区重组蛋白(OX40-His) [3] = target: T2, 人OX40胞外区重组蛋白(OX40-His) (human, UniProt P43489 29-214); experiment: ELISA, OX40-His coated at 1 ug/mL, anti-human Fc-HRP detection
T2 construct: extracellular domain; also called 人OX40重组蛋白(10481-H08H，北京义翘神州); 人OX40胞外区融合蛋白; not shown: His tag
T2 sequence (looked up): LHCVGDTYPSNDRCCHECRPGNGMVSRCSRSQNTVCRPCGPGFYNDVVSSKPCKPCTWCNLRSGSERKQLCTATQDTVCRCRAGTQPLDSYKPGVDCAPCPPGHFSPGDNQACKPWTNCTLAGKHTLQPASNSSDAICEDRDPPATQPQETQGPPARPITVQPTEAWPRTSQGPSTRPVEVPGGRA

PD-L1-mFc = target: T3, PD-L1-mFc (UniProt Q9NZQ7 19-238, limits assumed); experiment: competition ELISA: PD-1-hFc coated, PD-L1-mFc 1 ug/ml in solution, blocking of PD-L1 binding to PD-1
T3 construct: also called 重组PD-L1; not shown: mouse Fc (mFc)
T3 sequence (Q9NZQ7 19-238 limits assumed): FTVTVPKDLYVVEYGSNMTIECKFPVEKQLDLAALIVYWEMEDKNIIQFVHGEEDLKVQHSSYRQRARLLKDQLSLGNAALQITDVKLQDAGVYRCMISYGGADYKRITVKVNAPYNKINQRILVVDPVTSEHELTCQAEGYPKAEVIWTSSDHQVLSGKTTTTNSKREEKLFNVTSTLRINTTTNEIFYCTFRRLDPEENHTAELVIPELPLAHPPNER

人PD-L1胞外区重组蛋白(PD-L1-His) [4] = target: T4, 人PD-L1胞外区重组蛋白(PD-L1-His) (human, UniProt Q9NZQ7 19-238); experiment: ELISA, PD-L1-His coated at 1 ug/mL, anti-human Fc-HRP detection
T4 construct: extracellular domain; also called 人PD-L1重组蛋白(10084-H08H，北京义翘神州); 人PD-L1胞外区融合蛋白; not shown: His tag
T4 sequence (Q9NZQ7 19-238): as the sequence (Q9NZQ7 19-238 limits assumed) above

人OX40胞外区重组蛋白(OX40-His) [5] = target: T2, 人OX40胞外区重组蛋白(OX40-His); experiment: BLI (Octet QKe), antibody captured on AHC probe, antigen in solution, 1:1 Langmuir fit
人PD-L1胞外区重组蛋白(PD-L1-His) [6] = target: T4, 人PD-L1胞外区重组蛋白(PD-L1-His); experiment: as above
人OX40胞外区重组蛋白(OX40-His) [7] = target: T2, 人OX40胞外区重组蛋白(OX40-His); experiment: ELISA, OX40-His coated

PD-L1 on CHO-PD-L1-CD3L cells, sequence (Q9NZQ7 19-290 limits assumed): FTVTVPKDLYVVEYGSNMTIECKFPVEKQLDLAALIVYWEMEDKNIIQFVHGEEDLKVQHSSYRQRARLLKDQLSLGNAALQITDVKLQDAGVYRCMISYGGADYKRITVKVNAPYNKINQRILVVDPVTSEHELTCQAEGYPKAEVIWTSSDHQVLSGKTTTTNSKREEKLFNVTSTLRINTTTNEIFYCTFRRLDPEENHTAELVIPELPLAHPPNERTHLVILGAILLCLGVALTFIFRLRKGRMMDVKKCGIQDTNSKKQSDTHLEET

B1: hz25A7-hzF2 (bispecific antibody, human IgG1, kappa)
heavy: not shown
light: DIQMTQSPSSLSASVGDRVTITCRASKSVSTSGSSYIHWYQQKPGKAPKLLIYLASNLESGVPSRFSGSGSGTDFTLTISSLQPEDFATYYCQHSRELPLTFGGGTKVEIKRTVAAPSVFIFPPSDEQLKSGTASVVCLLNNFYPREAKVQWKVDNALQSGNSQESVTEQDSKDSTYSLSSTLTLSKADYEKHKVYACEVTHQGLSSPVTKSFNRGEC
notes: Symmetric four-chain molecule (two of peptide chain 1, two of peptide chain 2); expressed in HEK293, purified on Protein A; also called 抗PD-L1/OX40双特异性抗体 hz25A7-hzF2; OX40/PD-L1双特异性抗体
B1 was tested, and the “对PD-1/PD-L1信号通路的阻断活性 (Jurkat-PD1-NFAT / CHO-PD-L1-CD3L luciferase reporter), IC50” value [1] was 4.75 nM, the “刺激HT1080-huOX40细胞表达IL8活性, EC50” value [2] was 0.247 µg/mL and the EC50 (人OX40胞外区重组蛋白(OX40-His) [3]) was 0.0877 nM. The IC50 (PD-L1-mFc) was 6.84 nM, the EC50 (人PD-L1胞外区重组蛋白(PD-L1-His) [4]) was 0.563 nM and the Kd (人OX40胞外区重组蛋白(OX40-His) [5]) was 5 nM. For the same binder, the Kd (人PD-L1胞外区重组蛋白(PD-L1-His) [6]) was 1 nM.

B2: 抗OX40人源化抗体hz27G12 (antibody, V domains shown)
VH: EVQLVQSGAEVKKPGASVKVSCKASGYTFTEYIIHWVRQAPGQGLEWIGWFYPESGSIKYNEKFKDRVTITRDTSTSTVYMELSSLRSEDTAVYYCARHEDPITFAYWGQGTLVTVSS
VL: EIVMTQSPATLSVSPGERATLSCKASQSVDYEGDSYMNWYQQKPGQAPKLLIYAASNLESGIPARFSGSGSGTDFTLTISSLEPEDFATYYCQQSNEDPYTFGGGTKVEIK
notes: Parental humanised anti-OX40 monoclonal antibody (from CN202010063141.3); also called 单抗hz27G12
B2: binds (人OX40胞外区重组蛋白(OX40-His) [7]).

B3: 抗OX40人源化抗体hz25A7 (antibody, V domains shown)
VH: EVQLVESGGGLVQPGRSLRLSCAASGFTFSSHDMSWVRQAPGKGLELVAAINSEGGRIYYPDTMERRFTISRDNSKNTLYLQMNSLRAEDTAVYYCARHYDNYAWFAYWGQGTLVTVSS
VL: DIQMTQSPSSLSASVGDRVTITCRASKSVSTSGSSYIHWYQQKPGKAPKLLIYLASNLESGVPSRFSGSGSGTDFTLTISSLQPEDFATYYCQHSRELPLTFGGGTKVEIK
notes: Parental humanised anti-OX40 monoclonal antibody (from CN202010063141.3); also called 单抗hz25A7
B3: binds (人OX40胞外区重组蛋白(OX40-His) [7]).

B4: hz27G12-hzF2 (bispecific antibody, human IgG1, kappa)
heavy: not shown
light: EIVMTQSPATLSVSPGERATLSCKASQSVDYEGDSYMNWYQQKPGQAPKLLIYAASNLESGIPARFSGSGSGTDFTLTISSLEPEDFATYYCQQSNEDPYTFGGGTKVEIKRTVAAPSVFIFPPSDEQLKSGTASVVCLLNNFYPREAKVQWKVDNALQSGNSQESVTEQDSKDSTYSLSSTLTLSKADYEKHKVYACEVTHQGLSSPVTKSFNRGEC
notes: Symmetric four-chain molecule (two of peptide chain 1, two of peptide chain 2); expressed in HEK293, purified on Protein A; also called 抗PD-L1/OX40双特异性抗体 hz27G12-hzF2; OX40/PD-L1双特异性抗体
In the case of B4, the “对PD-1/PD-L1信号通路的阻断活性 (Jurkat-PD1-NFAT / CHO-PD-L1-CD3L luciferase reporter), IC50” value [1] is reported as 3.38 nM, the “刺激HT1080-huOX40细胞表达IL8活性, EC50” value [2] is reported as 2.28 µg/mL and the EC50 (人OX40胞外区重组蛋白(OX40-His) [3]) is reported as 0.0781 nM. It also gave an IC50 (PD-L1-mFc) of 7.12 nM, an EC50 (人PD-L1胞外区重组蛋白(PD-L1-His) [4]) of 0.651 nM and a Kd (人OX40胞外区重组蛋白(OX40-His) [5]) of 8 nM. For the same binder, the Kd (人PD-L1胞外区重组蛋白(PD-L1-His) [6]) was 1.3 nM.
